Test results reported in patent US20250019435A1 (ALBERT EINSTEIN COLLEGE OF MEDICINE, published 2025).

Assays:
Test in all cases: flow cytometry, transduced primary NK cells
Y298F/Y328F = molecular target: T1, Y298F/Y328F
T1 construct: also called KIR2DL5 Y298F/Y328F (ITIM and ITSM mutant) on transduced primary NK cells
Experimental: (§1) The KIR2DL5⁻ primary NK cells were transduced with WT KIR2DL5 or the indicated mutants, and then examined for protein expression with F8B30 (open) or mIgG1 (shaded). NC, negative control. Data are representative of 2 independent experiments. (B and C) Transduced primary NK cells were treated with (+) or without (−) pervanadate (VO₄) for 5 minutes. Cell lysates were immunoprecipitated with anti-KIR2DL5 antibodies. Phospho-tyrosine (4G10), SHP-1, SHP-2, and total KIR2DL5 were detected by immunoblots (B). Quantification of p-Tyr, SHP-1, and SHP-2 association with WT or mutant KIR2DL5 in VO₄-treated NK cells (C). WCL, whole-cell lysates. (D) Representative imaging of cell conjugates acquired upon the indicated transduced primary NK and PVR/Raji cell contact followed by staining with anti-KIR2DL5 mAb and DAPI. Scale bars: […]. (E) Lysis of scramble control or PVR^KO A427 (top) and Jurkat (bottom) by WT or mutant KIR2DL5-transduced primary NK cells at the indicated E/T ratios. Data are mean for duplicate measurements and representative of 3 independent experiments with 3 different donors. In A, and B, data are representative of 3 independent experiments. *P<0.05, **P<0.01, ***P<0.001, ****P<0.0001, by 1-way ANOVA (C), or paired Student's t test (D).
(§2) Primary NK cell transduction. KIR2DL5 wild type and variants of ITIM/ITSM expressed on the surface of KIR2DL5⁻ primary NK cells were introduced by lentiviral transduction. Lentivirus was produced in HEK293T cells cotransfected with psPAX, pMD2.G, and a lentiviral backbone pSin vector (a gift from the Alec Zhang laboratory, Department of Physiology, University of Texas Southwestern Medical Center, Dallas, Texas, USA) containing the full-length gene sequence of KIR2DL5A*001 using jetPRIME reagents (Polyplus Transfection). Virus-containing supernatant was harvested 48-72 hours after transfection and filtered through a 0.45 µm filter. Non-tissue-culture-treated plates were coated with retronectin, and virus supernatant was then incubated on the surface of plates at 2,000 g for 120 minutes at 37° C. […]

Y298F = molecular target: T2, Y298F
T2 construct: also called KIR2DL5 Y298F (ITIM mutant) on transduced primary NK cells
Experimental: as §1, §2

Y328F = molecular target: T3, Y328F
T3 construct: also called KIR2DL5 Y328F (ITSM mutant) on transduced primary NK cells
Experimental: as §1, §2

Measured: binding result

T2 sequence (receptor chain, as listed by the source Y298F Y298F limits assumed): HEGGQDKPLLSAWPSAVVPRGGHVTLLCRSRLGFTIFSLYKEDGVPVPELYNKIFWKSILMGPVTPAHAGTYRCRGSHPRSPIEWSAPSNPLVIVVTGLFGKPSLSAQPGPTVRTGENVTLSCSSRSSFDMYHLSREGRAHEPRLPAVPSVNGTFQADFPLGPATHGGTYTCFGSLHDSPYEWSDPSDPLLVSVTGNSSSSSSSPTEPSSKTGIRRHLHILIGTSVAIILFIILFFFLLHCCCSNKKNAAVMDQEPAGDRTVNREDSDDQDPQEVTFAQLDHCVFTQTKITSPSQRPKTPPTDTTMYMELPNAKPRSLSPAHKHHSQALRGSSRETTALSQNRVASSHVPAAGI
T3 sequence (receptor chain, as listed by the source Y328F Y328F limits assumed): as the sequence (receptor chain, as listed by the source Y298F Y298F limits assumed) above, with F277Y, Y307F counted along it
T1 sequence (receptor chain, as listed by the source Y298F Y328F Y298F Y328F limits assumed): as the sequence (receptor chain, as listed by the source Y298F Y298F limits assumed) above, with Y307F counted along it

B1: anti-KIR2DL5 mAb clone F8B30 (antibody, V domains shown)
VH: QIQLVQSGPELKKPGETVKISCKASGYTFTDYSMHWVKQAPGKGLKWMGWINTETGGPTYADDFKGRFAFSLETSATTAYLQINNLKNEDTATYFCSRDVDLYFDYWGQGTTLTVS
VL: DIQMTQSPASLSASVGETVTITCRTSENIYSYLAWYQQKQGKSPQLLVYNAKTLVEGVPSRFSGSGSGTQFSVKINSLQPEDFGNYYCQHHYGIPFTFGGGTKLEIK
notes: also called F8B30 (IgG1, κ)
binds: all assays above
